Results on three molecules are retold here after US20240124582A1 (published 2024).

Where only a bound is given, the exact number is not on record here.

In the experiment the target is T1, soluble LAG-3 fusion protein: extracelluar domain of cynomolgus monkey LAG-3 fused to murine IgG2a (cynomolgus monkey; murine).
T1 construct: extracellular domain; also called cynomolgus LAG-3-murine IgG2a fusion protein
As to the kind of experiment: SPR (Biacore); cynomolgus LAG-3-murine IgG2a captured on Fab2 goat-anti mouse Fc, antibody in solution. The procedure:
In additional studies, the binding kinetics of the humanized antibodies hLAG-3 mAb 1 (1.4) and hLAG-3 mAb 6 (1.1), and a reference antibody LAG-3 mAb A to both human and cynomolgus monkey LAG-3 was investigated using Biacore analysis. In these studies, a soluble LAG-3 fusion protein (the extracelluar domain of human or cynomolgus monkey LAG-3 fused to murine IgG2a) was captured on a Fab2 goat-anti mouse Fc surface and incubated with the anti-LAG-3 antibody and the kinetics of binding was determined via Biacore analysis. The binding curves for LAG-3 mAb A, hLAG-3 mAb 1 (1.4) and hLAG-3 mAb 6 (1.1) binding to cynomolgus monkey LAG-3 are shown in FIGS. 7A-7C respectively, and the calculated ka, kd and KD are presented in Table 8. In a separate study, the binding of a bispecific Fc Region-containing diabody comprising hLAG-3 mAb 6 (1.1) to both human and cynomolgus monkey LAG-3 was investigated using Biacore analysis. In this study, the hLAG-3 mAb 6 (1.1) containing diabody was captured on a Fab2 goat-anti human Fc surface and incubated with soluble LAG-3 fusion protein (the extracelluar domain of human or cynomolgus monkey LAG-3 fused to a His tag) and the kinetics of binding was determined via Biacore analysis.

B1: 25F7 (BMS-986016, Medarex/BMS), designated LAG-3 mAb A (antibody, V domains shown)
VH: QVQLQQWGAGLLKPSETLSLTCAVYGGSFSDYYWNWIRQPPGKGLEWIGEINHNGNTNSNPSLKSRVTLSLDTSKNQFSLKLRSVTAADTAVYYCAFGYSDYEYNWFDPWGQGTLVTVSS
VL: EIVLTQSPATLSLSPGERATLSCRASQSISSYLAWYQQKPGQAPRLLIYDASNRATGIPARFSGSGSGTDFTLTISSLEPEDFAVYYCQQRSNWPLTFGQGTNLEIK
notes: also called LAG-2 mAb A
The molecule B1 yielded an equilibrium dissociation constant (Kd) of 458 nM.

B2: hLAG-3 mAb 6 (1.1) (antibody, V domains shown)
VH: QVQLVQSGAEVKKPGASVKVSCKASGYTFTDYNMDWVRQAPGQGLEWMGDINPDNGVTIYNQKFEGRVTMTTDTSTSTAYMELRSLRSDDTAVYYCAREADYFYFDYWGQGTTLTVSS
VL: DIQMTQSPSSLSASVGDRVTITCRASQDVSSVVAWYQQKPGKAPKLLIYSASYRYTGVPSRFSGSGSGTDFTLTISSLQPEDFATYYCQQHYSTPWTFGGGTKLEIK
notes: also called hLAG-3 6 (1.1); humanized LAG-3 mAb 6
The molecule B2 came in with a dissociation constant Kd of 3.7 nM.

B3: hLAG-3 mAb 1 (1.4), constant region not stated (antibody, V domains shown)
VH: QVQLVQSGAEVKKPGASVKVSCKASGYTFTNYGMNWVRQAPGQGLEWMGWINTYTGESTYADDFEGRFVFSMDTSASTAYLQISSLKAEDTAVYYCARESLYDYYSMDYWGQGTTVTVSS
VL: DIVMTQTPLSLSVTPGQPASISCKSSQSLLHSDAKTYLNWLLQKPGQPPERLIYLVSELDSGVPDRFSGSGSGTDFTLKISRVEAEDVGVYYCWQGTHFPYTFGGGTKVEIK
notes: also called hLAG-3 1 (1.4)
B3 had a Kd of less than 0.53 nM.
